Laboratory results taken from the RNAGym collection of RNA variant scans (doi:10.7554/elife.80360).

B1: Hairpin Ribozyme (parent)
chain: GUCCUCUUUCACGUGCGCGUGAAAGAGAGAAGUGAACCAGAGAAACACACGUUGUGGUAUAUUACCUGGUA

Variants of: B1
Experiment: self-cleavage, relative activity (ratio to wild type); higher = more cleavage; co-transcriptional

Variant	self-cleavage
GUCCUCUUUUACGUGCGCGUGAAAGAGAGAAGUGAACCAGAGAAACACACGUUGGGGUAUAUUACCUGGUA	0.201
GUCCUCUUUUACGUGCGCGUGAAAGAGAGAAGUGAACCAGAGAAACACACGUUGCGGUAUAUUACCUGGUA	0.337
GUCCUCUUUUACGUGCGCGUGAAAGAGAGAAGUGAACCAGAGAAACACACGUUGAGGUAUAUUACCUGGUA	0.213
GUCCUCUUUUAAGUGCGCGUGAAAGAGAGAAGUGAACCAGAGAAACACACGUUGUGGUAUAUUACCUGGUA	0.574
GUCCUCUUUCCCGUGCGCGUGAAAGAGAGAAGUGAACCAGAGAAACACACGUUGUGGUAUAUUACCUGGUG	0.902
GUCCUCUUUCCCGUGCGCGUGAAAGAGAGAAGUGAACCAGAGAAACACACGUUGUGGUAUAUUACCUGGUU	0.747
GUCCUCUUUCCCGUGCGCGUGAAAGAGAGAAGUGAACCAGAGAAACACACGUUGUGGUAUAUUACCUGGUC	1.15
GUCCUCUUUUACGUGCGUGUGAAAGAGAGAAGUGAACCAGAGAAACACACGUUGUGGUAUAUUACCUGGUA	0.95
GUCCUCUUUUACGUGCGAGUGAAAGAGAGAAGUGAACCAGAGAAACACACGUUGUGGUAUAUUACCUGGUA	0.956
GUCCUCUUUCCCGUGCGCGUGAAAGAGAGAAGUGUACCAGAGAAACACACGUUGUGGUAUAUUACCUGGUA	0.643
GUCCUCUUUCCCGUGCGCGUGAAAGAGAGAAGUGGACCAGAGAAACACACGUUGUGGUAUAUUACCUGGUA	0.837
GUCCUCUUUUACGUGCGCGUGAAAGAGAGAAGUAAACCAGAGAAACACACGUUGUGGUAUAUUACCUGGUA	1.04
GUCCUCUUUCCCGUGCGCGUGAAAGAGAGAAGUGAACCAGAGCAACACACGUUGUGGUAUAUUACCUGGUA	0
GUCCUCUUUCCCGUGCGCGUGAAAGAGAGAAGUGAACCAGAGGAACACACGUUGUGGUAUAUUACCUGGUA	0.0792
GUCCUCUUUUACGUGCGCGUGAAAGAGAGAAGUGAACCAGAGAAACACACGUUGUGGUAUAAUACCUGGUA	0.234
GUCCUCUUUCCCGUGCGCGUGAAAGAGAGCAGUGAACCAGAGAAACACACGUUGUGGUAUAUUACCUGGUA	0.147
GUCCUCUUUCCCGUGCGCGUGAAAGAGAGUAGUGAACCAGAGAAACACACGUUGUGGUAUAUUACCUGGUA	0.177
GUCCUCUUUUACGUGCGCGUGAAAGAGAGAAGUGAACCAGAGAAACACACGUUGUGGUACAUUACCUGGUA	0.992
GUCCUCUUUUACGUGCGCGUGAAAGAGAGAACUGAACCAGAGAAACACACGUUGUGGUAUAUUACCUGGUA	0.17
GUCCUCUUUCCCGUGCGCGUUAAAGAGAGAAGUGAACCAGAGAAACACACGUUGUGGUAUAUUACCUGGUA	0.799
GUCCUCUUUCCCCUGCGCGUGAAAGAGAGAAGUGAACCAGAGAAACACACGUUGUGGUAUAUUACCUGGUA	0.503
GUCCUCUUUCCCUUGCGCGUGAAAGAGAGAAGUGAACCAGAGAAACACACGUUGUGGUAUAUUACCUGGUA	0.717
GUCCUCUUUCCCGUGCGCAUGAAAGAGAGAAGUGAACCAGAGAAACACACGUUGUGGUAUAUUACCUGGUA	0.741
GUCCUCUUUUACGUGCUCGUGAAAGAGAGAAGUGAACCAGAGAAACACACGUUGUGGUAUAUUACCUGGUA	0.665
GUCCUCUUUUACGUGCGCGUGAAAGAGAGAAGUGAACCAGAGAAACACACGUUGUGCUAUAUUACCUGGUA	0.187
GUCCUCUUUCCCGUGCGCGUGAAAGAGAGAAGUGAACCAGAGAGACACACGUUGUGGUAUAUUACCUGGUA	0.197

Variant	self-cleavage
GUCCUCUUUCCCGUGCGCGUGAAAGAGAGAAGUGAACCAGAGACACACACGUUGUGGUAUAUUACCUGGUA	0.0983
GUCCUCUUUCCCGUGCGCGUGAAAGAGAGAAGUGAACCAGGGAAACACACGUUGUGGUAUAUUACCUGGUA	0.701
GUCCUCUUUUACGUGCGCGUGAAAGAGAGAAGUGAACCAGAGAAACACACGUUGUGGUAUUUUACCUGGUA	0.246
GUCCUCUUUUACAUGCGCGUGAAAGAGAGAAGUGAACCAGAGAAACACACGUUGUGGUAUAUUACCUGGUA	0.662
GUCCUCUUUCCCGUGCGCGUGAAGGAGAGAAGUGAACCAGAGAAACACACGUUGUGGUAUAUUACCUGGUA	0.539
GUCCUCUUUUACGUGCGCGUGAAACAGAGAAGUGAACCAGAGAAACACACGUUGUGGUAUAUUACCUGGUA	0.487
GUCCUCUUUUACGUGCGCGUGAAAGAGAGAAGUGAACCAGAGAAACACACGUUGUGGUAUAUCACCUGGUA	0.102
GUCCUCUUUUACGUGCGCGGGAAAGAGAGAAGUGAACCAGAGAAACACACGUUGUGGUAUAUUACCUGGUA	0.498
GUCCUCUUUCCCGUGCGGGUGAAAGAGAGAAGUGAACCAGAGAAACACACGUUGUGGUAUAUUACCUGGUA	0.775
GUCCUCUUUCCCGUGCGUGUGAAAGAGAGAAGUGAACCAGAGAAACACACGUUGUGGUAUAUUACCUGGUA	0.94
GUCCUCUUUCCCGUGCGCGUGAAAGAGCGAAGUGAACCAGAGAAACACACGUUGUGGUAUAUUACCUGGUA	0.481
GUCCUCUUUCCCGUGCGCGUGAAAGAGAGAAGUGAACCUGAGAAACACACGUUGUGGUAUAUUACCUGGUA	0.37
GUCCUCUUUUACGUGCGCGUGAAAGAGAGAAGUGAACCAGAGAAACACACGUUGUGGUAUAUUACCUGUUA	0.217
GUCCUCUUUUACGUGCGCGUGAAAGAGAGAAGUGAACCAGAGAAACACACGUUGUGGUAUAUUACCUGAUA	0.405
GUCCUCUUUCCCGUGCGCGUGAAAGAGAGAAGUGAACCAGAGAAACACAGGUUGUGGUAUAUUACCUGGUA	0.321
GUCCUCUUUUACGUGCGCGUGAAAGAGAGAAGUGAACUAGAGAAACACACGUUGUGGUAUAUUACCUGGUA	0.387
GUCCUCUUUUACGUGCGCGUGAAAGAGAGAAGUGAACAAGAGAAACACACGUUGUGGUAUAUUACCUGGUA	0.157
GUCCUCUUUUACGUGCGCGUGAAAGAGAGAAGUGAACGAGAGAAACACACGUUGUGGUAUAUUACCUGGUA	0.269
GUCCUCUUUUACGUGCGCGUGAAAGAUAGAAGUGAACCAGAGAAACACACGUUGUGGUAUAUUACCUGGUA	0.225
GUCCUCUUUUACGUGCGCGUGAAAGACAGAAGUGAACCAGAGAAACACACGUUGUGGUAUAUUACCUGGUA	0.0988
GUCCUCUUUUACGUGCGCGUGAAAGAGAGAAGUGAACCAGAGAAACACACGUUAUGGUAUAUUACCUGGUA	0.561
GUCCUCUUUUACGUGCGCGUGAAAGAGAGAAGUGAACCAGAGAAACACACGUUUUGGUAUAUUACCUGGUA	0.452
GUCCUCUUUUACGUGCGCGUGAAAGAGAGAAGUGAACCAGAGAAACACACGUGGUGGUAUAUUACCUGGUA	0.725
GUCCUCUUUUACGUGCGCGUGAAAGAGAGAAGUGAACCAGAGAAACACACGUAGUGGUAUAUUACCUGGUA	0.733
GUCCUCUUUCCGGUGCGCGUGAAAGAGAGAAGUGAACCAGAGAAACACACGUUGUGGUAUAUUACCUGGUA	0.903
GUCCUCUUUCCUGUGCGCGUGAAAGAGAGAAGUGAACCAGAGAAACACACGUUGUGGUAUAUUACCUGGUA	0.766

Variant	self-cleavage
GUCCUCUUUCCCGUGCGCGUGAAAAAGAGAAGUGAACCAGAGAAACACACGUUGUGGUAUAUUACCUGGUA	0.504
GUCCUCUUUCCCGUGCGCGUGAAACAGAGAAGUGAACCAGAGAAACACACGUUGUGGUAUAUUACCUGGUA	0.457
GUCCUCUUUCCCGUGAGCGUGAAAGAGAGAAGUGAACCAGAGAAACACACGUUGUGGUAUAUUACCUGGUA	0.759
GUCCUCUUUCCCGUGGGCGUGAAAGAGAGAAGUGAACCAGAGAAACACACGUUGUGGUAUAUUACCUGGUA	0.578
GUCCUCUUUCCCGUGCGCGUGAAAGAGAGAAGUGAACCAGAGAAACUCACGUUGUGGUAUAUUACCUGGUA	0.251
GUCCUCUUUUACGUGCGCGUGAAAGAGAGAAGUGAACCAGAGAAACAGACGUUGUGGUAUAUUACCUGGUA	0.134
GUCCUCUUUUACGUGCGCGUGAAAGAGAGAAGUGAACCAGAGAAACAAACGUUGUGGUAUAUUACCUGGUA	0.104
GUCCUCUUUCCCGUUCGCGUGAAAGAGAGAAGUGAACCAGAGAAACACACGUUGUGGUAUAUUACCUGGUA	0.996
GUCCUCUUUCCCGUGCGCGUGAAAGAGAGAAGUGAACCAGAGAAACACACGUUGUGGUAUCUUACCUGGUA	0.24
GUCCUCUUUCCCGUGCGCGUGAAAGGGAGAAGUGAACCAGAGAAACACACGUUGUGGUAUAUUACCUGGUA	0.645
GUCCUCUUUUACGUGCGCGUGAAAGAGAGAAGUGAACCAGAGAAACACACGUUGUGGUAUAUUACCUCGUA	0.229
GUCCUCUUUUACGUGCGCGUGAAAGAGAGAAGUGAACCAGAGAAACACAAGUUGUGGUAUAUUACCUGGUA	0.18
GUCCUCUUUUACGUGCGCGUGAAAGAGAGAAGUGAACCAGAGAAACACAUGUUGUGGUAUAUUACCUGGUA	0.391
GUCCUCUUUUACGUGCGCGUUAAAGAGAGAAGUGAACCAGAGAAACACACGUUGUGGUAUAUUACCUGGUA	0.815
GUCCUCUUUCCCGUGCGCGUGCAAGAGAGAAGUGAACCAGAGAAACACACGUUGUGGUAUAUUACCUGGUA	0.803
GUCCUCUUUCCCGUGCUCGUGAAAGAGAGAAGUGAACCAGAGAAACACACGUUGUGGUAUAUUACCUGGUA	0.745
GUCCUCUUUCCCGUGCCCGUGAAAGAGAGAAGUGAACCAGAGAAACACACGUUGUGGUAUAUUACCUGGUA	0.745
GUCCUCUUUCCCGUGCGCGUGAAAGAGAGAUGUGAACCAGAGAAACACACGUUGUGGUAUAUUACCUGGUA	0.18
GUCCUCUUUCCCGUGCGCGUGAAAGAGAGAGGUGAACCAGAGAAACACACGUUGUGGUAUAUUACCUGGUA	0.437
GUCCUCUUUUACGUGCGCGUGAAAGAGAGAAGUGAACCAGAGAAACACACGUUGUGGGAUAUUACCUGGUA	0.557
GUCCUCUUUUACGUGCGCGUGAAAGAGAGAAGUGAACCAGAGAAACACACGUUGUGGCAUAUUACCUGGUA	0.771
GUCCUCUUUUACGUGCGCGUGAAAGAGAGAAGUGAACCAGAGAAACACACGCUGUGGUAUAUUACCUGGUA	0.949
GUCCUCUUUUACGUGCGCGUGAAAGAGAGAAGUGAACCAGAGAAACACACGGUGUGGUAUAUUACCUGGUA	0.564
GUCCUCUUUCCCGUGCGCGUGAAAGAGAGAAGUGAACGAGAGAAACACACGUUGUGGUAUAUUACCUGGUA	0.0848
